Assay results from PMC3459099.

Molecular target: ERp57-Cys57Ser–Cys406Ser double mutant (mutated ERp57) (human) (UniProt P30101)
Assay: ELISA

Substance: recombinant N-terminal region of β-DG, β-DG(654–750), biotinylated (domain or fragment)
- Kd: 10 µM
